Assay [1] deals with T1, Human plasma sIL-6R (human, UniProt P08887 20-355, limits assumed).
T1 construct: also called plasma-derived human IL-6R
T1 sequence (looked up): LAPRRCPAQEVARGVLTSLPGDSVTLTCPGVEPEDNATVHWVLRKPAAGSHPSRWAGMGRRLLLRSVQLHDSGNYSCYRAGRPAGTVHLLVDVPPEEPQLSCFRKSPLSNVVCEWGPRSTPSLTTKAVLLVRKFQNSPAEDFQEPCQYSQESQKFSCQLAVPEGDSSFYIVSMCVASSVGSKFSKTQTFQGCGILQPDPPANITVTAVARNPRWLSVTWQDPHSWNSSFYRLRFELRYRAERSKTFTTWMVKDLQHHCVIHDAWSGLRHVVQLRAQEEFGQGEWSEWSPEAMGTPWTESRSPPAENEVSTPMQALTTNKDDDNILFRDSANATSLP
The assay can be described thus: plasma potency ELISA, human plasma. A general note: ELISA stands for enzyme-linked immunosorbent assay.

For assay [2], the target named is T1, Human plasma sIL-6R. The assay can be described thus: plasma potency ELISA, human plasma + human IL-6 50 ng/mL; sIL-6R captured on BN-12, bound IL-6 detected; blocked ligand IL-6.
The target in assay [3] is T2, Cyno plasma sIL-6R (cynomolgus monkey, UniProt A0A2K5WN54 60-396).
T2 construct: also called cynomolgus sIL-6R
T2 sequence: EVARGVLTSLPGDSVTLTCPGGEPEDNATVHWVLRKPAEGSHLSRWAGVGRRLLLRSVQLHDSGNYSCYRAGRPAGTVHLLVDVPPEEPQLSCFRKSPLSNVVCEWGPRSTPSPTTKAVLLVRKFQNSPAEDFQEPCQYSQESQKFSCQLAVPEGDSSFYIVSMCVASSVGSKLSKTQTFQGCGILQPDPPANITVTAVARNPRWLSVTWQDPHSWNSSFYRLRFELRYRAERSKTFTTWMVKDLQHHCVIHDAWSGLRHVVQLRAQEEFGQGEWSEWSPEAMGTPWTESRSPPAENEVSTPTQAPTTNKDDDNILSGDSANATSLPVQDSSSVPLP
The assay can be described thus: plasma potency ELISA, cyno plasma + human IL-6 50 ng/mL; sIL-6R captured on BN-12, bound IL-6 detected; blocked ligand IL-6.

In assay [4] the target is T3, Human membrane IL-6R on cells (human, UniProt P08887 20-468).
T3 sequence (looked up): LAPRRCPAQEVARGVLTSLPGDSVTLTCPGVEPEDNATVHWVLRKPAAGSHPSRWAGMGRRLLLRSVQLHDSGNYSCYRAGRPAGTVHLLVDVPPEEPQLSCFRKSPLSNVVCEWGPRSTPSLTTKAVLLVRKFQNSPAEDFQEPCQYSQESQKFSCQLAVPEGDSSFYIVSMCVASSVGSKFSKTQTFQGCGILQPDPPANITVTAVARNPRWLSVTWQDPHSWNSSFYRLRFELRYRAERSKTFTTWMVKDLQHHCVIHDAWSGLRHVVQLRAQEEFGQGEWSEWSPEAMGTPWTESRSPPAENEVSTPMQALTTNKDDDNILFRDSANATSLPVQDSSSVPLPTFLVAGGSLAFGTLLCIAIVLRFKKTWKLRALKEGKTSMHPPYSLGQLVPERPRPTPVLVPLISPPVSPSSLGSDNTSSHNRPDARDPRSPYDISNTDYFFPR
The assay can be described thus: cell-based or functional assay.

Assay [5] concerns the target T1, Human plasma sIL-6R. The assay can be described thus: plasma potency assay, human plasma, 42 nM IL6; blocked ligand IL-6.
Method: (§1) All 5 affinity matured Nanobodies and the sequence optimized Nanobody were also tested in a plasma potency assay. […] TMB was used as substrate.
The target of assay [6] is T2, Cyno plasma sIL-6R. The assay can be described thus: plasma potency ELISA, human against cyno plasma.
The target in assay [7] is T1, Human plasma sIL-6R. As to the kind of experiment: plasma potency ELISA, human plasma, normal IL-6 (EC50).
The target in assay [8] is T1, Human plasma sIL-6R. The assay can be described thus: plasma potency assay, human plasma, 2.4 nM IL6; blocked ligand IL-6.
Method: as §1
For assay [9], the target named is T3, Human membrane IL-6R on cells. As to the kind of experiment: cell-based or functional assay. This is another data set of the same source.
For assay [10], the target named is T1, Human plasma sIL-6R. As to the kind of experiment: plasma potency ELISA, human plasma; human plasma.
Assay [11] addresses T1, Human plasma sIL-6R. The assay can be described thus: plasma potency ELISA, human plasma, high IL-6 (EC95).
In assay [12] the target is T2, Cyno plasma sIL-6R. As to the kind of experiment: plasma potency ELISA, cyno plasma.
Assay [13] addresses T3, Human membrane IL-6R on cells. The assay can be described thus: cell-based or functional assay. This is another data set of the same source.

Data on 1 molecule can be found in US20120077731A1 (Ablynx, published 2012).

B1: Reference IgG (antibody, V domains shown)
VH: QVQLQESGPGLVRPSQTLSLTCTVSGYSITSDHAWSWVRQPPGRGLEWIGYISYSGITTYNPSLKSRVTMLRDTSKNQFSLRLSSVTAADTAVYYCARSLARTTAMDYWGQGSLVTVSS
VL: DIQMTQSPSSLSASVGDRVTITCRASQDISSYLNWYQQKPGKAPKLLIYYTSRLHSGVPSRFSGSGSGTDFTFTISSLQPEDIATYYCQQGNTLPYTFGQGTKVEIKR
notes: Full-length human IgG1 produced in CHO cells
By IC50 is commonly meant the concentration that inhibits the measured activity by half. Higher therefore signals a need for much substance. Turning to B1, in the assay with Human plasma sIL-6R [1], the “Ratio (high/low) of IC50” value turned out to be 6.54. In addition, the “IC50 (read off the curve)” value was approximately 0.04 nM with Human plasma sIL-6R [2] and approximately 0.01 nM with Cyno plasma sIL-6R [3]. Also, the “IC50 (nM) + HSA, XG-1 proliferation assay” value in assay [4] turned out to be 0.47 nM. The IC50 with Human plasma sIL-6R [5] is 1.7 nM; with Human plasma sIL-6R [7] it was 0.258 nM; with Human plasma sIL-6R [8], 0.2 nM; with Human plasma sIL-6R [10], 0.258 nM; with Human plasma sIL-6R [11], 1.69 nM; with Cyno plasma sIL-6R [12], 0.166 nM. For the same molecule, the “Ratio (human/cyno) of IC50” value with Cyno plasma sIL-6R [6] was found to be 1.55. In addition, the “IC50 (nM), TF-1 proliferation at 5000 IU/mL IL-6” value in assay [9] worked out at 144 nM. Moreover, the “IC50 (nM), TF-1 proliferation at 100 IU/mL IL-6” value in [13] turned out to be 0.921 nM.
